# Measured values from patent US12139520B2 (priority 2020, dated 2024).
# Bridge positions count the residues as written; N and C are the ends. Square brackets hold non-standard residues; d marks the D form. Ends that are not written are not given here. Hyp = O=C(O)[C@@H]1C[C@@H](O)CN1; Cit = NC(=O)NCCC[C@H](N)C(=O)O
# Biological target: T1, hAMY3R (human, UniProt P30988)
# T1 sequence 1: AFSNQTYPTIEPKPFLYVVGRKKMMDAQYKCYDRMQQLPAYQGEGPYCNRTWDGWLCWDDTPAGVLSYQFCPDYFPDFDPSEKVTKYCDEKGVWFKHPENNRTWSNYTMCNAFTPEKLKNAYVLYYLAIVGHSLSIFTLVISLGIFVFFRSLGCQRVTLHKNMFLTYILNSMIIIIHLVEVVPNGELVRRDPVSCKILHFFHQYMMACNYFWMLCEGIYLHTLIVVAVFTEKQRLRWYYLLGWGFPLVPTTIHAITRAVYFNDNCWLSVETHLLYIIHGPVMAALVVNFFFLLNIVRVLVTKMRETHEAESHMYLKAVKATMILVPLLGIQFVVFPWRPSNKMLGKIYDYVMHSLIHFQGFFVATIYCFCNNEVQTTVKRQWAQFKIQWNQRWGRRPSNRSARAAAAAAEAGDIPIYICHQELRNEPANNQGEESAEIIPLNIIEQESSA
# T1 sequence 2: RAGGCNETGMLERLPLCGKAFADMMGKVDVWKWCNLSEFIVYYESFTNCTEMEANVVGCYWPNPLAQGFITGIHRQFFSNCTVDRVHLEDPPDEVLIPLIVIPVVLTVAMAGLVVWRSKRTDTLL
# Assay: cell-based or functional assay
row,Binder,hAMY3R EC50 (cAMP)
1,GCRTGTCTVQWLAHQIYQFTDKDKDNVAPRTNVGPQG[Hyp]-NH2 (disulfide 2-7 (inferred); ends not checked) [SEQ ID NO: 323],0.014 nM
2,KCNTATCTVQWLAHQIYQFDKDKDNVAPPTNVGSNG[Hyp]-NH2 (disulfide 2-7 (inferred); ends not checked) [SEQ ID NO: 329],0.032 nM
3,KCNAATCTVQWLAEQIYQFTDKDKDNVAPPTNVGSNG[Hyp]-NH2 (disulfide 2-7 (inferred); ends not checked) [SEQ ID NO: 333],0.236 nM
4,GCRFGTCTVQWLAHQIYQFTDKDKDNVAPRTKVGPQG[Hyp]-NH2 (disulfide 2-7 (inferred); ends not checked) [SEQ ID NO: 322],0.014 nM
5,KCNTATCTVQWLAEQIYQFTDKDKDNVAPPYNEGSNG[Hyp]-NH2 (disulfide 2-7 (inferred); ends not checked) [SEQ ID NO: 321],0.317 nM
6,KCNTATCTVQWLAHQIYQFTDADKDNVAPPTNVGSNG[Hyp]-NH2 (disulfide 2-7 (inferred); ends not checked) [SEQ ID NO: 328],0.01 nM
7,KCNTATCTVQWLAHQIYQFTDKDKDNVAPATNVGSNG[Hyp]-NH2 (disulfide 2-7 (inferred); ends not checked) [SEQ ID NO: 316],0.012 nM
8,GCRFGTCTVQWLAHQIYQFTDKDKDNVAPRTKIGPQG[Hyp]-NH2 (disulfide 2-7 (inferred); ends not checked) [SEQ ID NO: 336],0.029 nM
9,GCRFGTCTVQWLAHQIYQFTDKDKDNVAPRTKISPNG[Hyp]-NH2 (disulfide 2-7 (inferred); ends not checked) [SEQ ID NO: 337],0.019 nM
10,RCQTSTCTVARLAEQIAQYTDKDKDQVAPPTNVGSNS[Hyp]-NH2 (disulfide 2-7 (inferred); ends not checked) [SEQ ID NO: 32],0.008 nM
11,KCNTSTCTVAWLADQITQFSDKDKANVSPPTEVGPNS[Hyp]-NH2 (disulfide 2-7 (inferred); ends not checked) [SEQ ID NO: 310],0.003 nM
12,KCNTATCTVQWLAHQIYQFTDKDKDNVAPPTNVGSNG[Hyp]-NH2 (disulfide 2-7 (inferred); ends not checked) [SEQ ID NO: 330],0.008 nM
13,KCNTATCTVQWLAHQIYQFTDKDKDNVAAPTNVGSNG[Hyp]-NH2 (disulfide 2-7 (inferred); ends not checked) [SEQ ID NO: 325],0.025 nM
14,KCNTATCTVQWLAHQIYQFTKDKDNVAPPTNVGSNG[Hyp]-NH2 (disulfide 2-7 (inferred); ends not checked) [SEQ ID NO: 317],0.004 nM
15,KCNTATCTVQWLAHQIYQATDKDKDNVAPPTNVGSNG[Hyp]-NH2 (disulfide 2-7 (inferred); ends not checked) [SEQ ID NO: 338],0.089 nM
16,KCNTATCTVQWLAHQIYQFTDKDKDNAAPPTNVGSNG[Hyp]-NH2 (disulfide 2-7 (inferred); ends not checked) [SEQ ID NO: 315],0.012 nM

row,Binder,hAMY3R EC50 (cAMP)
1,KCNTATCTVQWLAHQIYQFADKDKDNVAPPTNVGSNG[Hyp]-NH2 (disulfide 2-7 (inferred); ends not checked) [SEQ ID NO: 313],0.004 nM
2,KCNTATCTVQWLAHQIYQFTDKDKDAVAPPTNVGSNG[Hyp]-NH2 (disulfide 2-7 (inferred); ends not checked) [SEQ ID NO: 324],0.028 nM
3,KCNTATCTVQWLAHQIYQFTDKDKDNVAPRTEVGSNGY [SEQ ID NO: 334],0.013 nM
4,KCNTATCTVQRLAHQIYQFTDKDKDNVAPRTKVGSNGY [SEQ ID NO: 34],0.009 nM
5,GCRFGTCTVQWLAHQIYQFTDKDKDNVAPRTNIGPNG[Hyp]-NH2 (disulfide 2-7 (inferred); ends not checked) [SEQ ID NO: 331],0.006 nM
6,KCNTATCTVQWLAHQIYQFTDKDKANVAPPTNVGSNG[Hyp]-NH2 (disulfide 2-7 (inferred); ends not checked) [SEQ ID NO: 314],0.008 nM
7,KCNTATCTVQWLAHQIYQFTDKDKDNVAPTNVGSNG[Hyp]-NH2 (disulfide 2-7 (inferred); ends not checked) [SEQ ID NO: 319],0.018 nM
8,GCRFGTCTVQWLANFLYQFTDKDKDNVAPRTNVGPQGY [SEQ ID NO: 311],0.06 nM
9,GCRFGTCTVQWLAHFLYQFTDKDKDNVAPRTNVGSNTY [SEQ ID NO: 327],0.09 nM
10,GCRFGTCTVQWLAHFLYQFTDKDKDNVAPRTNVGPQGY [SEQ ID NO: 326],0.053 nM
11,GCRTGTCTVQWLAHQIYQFTDKDKDNVAPRTNVGPQGY [SEQ ID NO: 335],0.015 nM
12,KCNTATCTVQWLAHQIYQFTDKDKDNVAPRTKVGSNG[Hyp]-NH2 (disulfide 2-7 (inferred); ends not checked) [SEQ ID NO: 312],0.012 nM
13,KCNTATCTVQWLAHQIYQFTDKDKDNVPPTNVGSNG[Hyp]-NH2 (disulfide 2-7 (inferred); ends not checked) [SEQ ID NO: 318],0.009 nM
14,KCNTATCTVQWLAHQIYQFTDKAKDNVAPPTNVGSNG[Hyp]-NH2 (disulfide 2-7 (inferred); ends not checked) [SEQ ID NO: 320],0.009 nM
15,GCRTGTCTVQWLAHQIYQFTDKDKDNVAPRTNVGPNGY [SEQ ID NO: 332],0.007 nM
16,RCQASTCTVA[Cit]LAEQIAQYTDKDKDQVAPPTEVGPNS[Hyp]-NH2 (disulfide 2-7 (inferred); ends not checked) [SEQ ID NO: 33],0.008 nM

# Biological target: hAM1R (human, UniProt Q16602)
# Assay: cell-based or functional assay
row,Binder,hAM1R EC50 (cAMP)
1,GCRTGTCTVQWLAHQIYQFTDKDKDNVAPRTNVGPQG[Hyp]-NH2 (disulfide 2-7 (inferred); ends not checked) [SEQ ID NO: 323],> 5 µM
2,KCNTATCTVQWLAHQIYQFDKDKDNVAPPTNVGSNG[Hyp]-NH2 (disulfide 2-7 (inferred); ends not checked) [SEQ ID NO: 329],> 5 µM
3,KCNAATCTVQWLAEQIYQFTDKDKDNVAPPTNVGSNG[Hyp]-NH2 (disulfide 2-7 (inferred); ends not checked) [SEQ ID NO: 333],0.107 µM
4,GCRFGTCTVQWLAHQIYQFTDKDKDNVAPRTKVGPQG[Hyp]-NH2 (disulfide 2-7 (inferred); ends not checked) [SEQ ID NO: 322],1.39 µM
5,KCNTATCTVQWLAEQIYQFTDKDKDNVAPPYNEGSNG[Hyp]-NH2 (disulfide 2-7 (inferred); ends not checked) [SEQ ID NO: 321],> 5 µM
6,KCNTATCTVQWLAHQIYQFTDADKDNVAPPTNVGSNG[Hyp]-NH2 (disulfide 2-7 (inferred); ends not checked) [SEQ ID NO: 328],> 5 µM
7,KCNTATCTVQWLAHQIYQFTDKDKDNVAPATNVGSNG[Hyp]-NH2 (disulfide 2-7 (inferred); ends not checked) [SEQ ID NO: 316],> 5 µM
8,GCRFGTCTVQWLAHQIYQFTDKDKDNVAPRTKIGPQG[Hyp]-NH2 (disulfide 2-7 (inferred); ends not checked) [SEQ ID NO: 336],0.738 µM
9,GCRFGTCTVQWLAHQIYQFTDKDKDNVAPRTKISPNG[Hyp]-NH2 (disulfide 2-7 (inferred); ends not checked) [SEQ ID NO: 337],1.58 µM
10,RCQTSTCTVARLAEQIAQYTDKDKDQVAPPTNVGSNS[Hyp]-NH2 (disulfide 2-7 (inferred); ends not checked) [SEQ ID NO: 32],> 5 µM
11,KCNTSTCTVAWLADQITQFSDKDKANVSPPTEVGPNS[Hyp]-NH2 (disulfide 2-7 (inferred); ends not checked) [SEQ ID NO: 310],> 5 µM
12,KCNTATCTVQWLAHQIYQFTDKDKDNVAPPTNVGSNG[Hyp]-NH2 (disulfide 2-7 (inferred); ends not checked) [SEQ ID NO: 330],> 5 µM
13,KCNTATCTVQWLAHQIYQFTDKDKDNVAAPTNVGSNG[Hyp]-NH2 (disulfide 2-7 (inferred); ends not checked) [SEQ ID NO: 325],> 5 µM
14,KCNTATCTVQWLAHQIYQFTKDKDNVAPPTNVGSNG[Hyp]-NH2 (disulfide 2-7 (inferred); ends not checked) [SEQ ID NO: 317],> 5 µM
15,KCNTATCTVQWLAHQIYQATDKDKDNVAPPTNVGSNG[Hyp]-NH2 (disulfide 2-7 (inferred); ends not checked) [SEQ ID NO: 338],> 5 µM
16,KCNTATCTVQWLAHQIYQFTDKDKDNAAPPTNVGSNG[Hyp]-NH2 (disulfide 2-7 (inferred); ends not checked) [SEQ ID NO: 315],> 5 µM

row,Binder,hAM1R EC50 (cAMP)
1,KCNTATCTVQWLAHQIYQFADKDKDNVAPPTNVGSNG[Hyp]-NH2 (disulfide 2-7 (inferred); ends not checked) [SEQ ID NO: 313],> 5 µM
2,KCNTATCTVQWLAHQIYQFTDKDKDAVAPPTNVGSNG[Hyp]-NH2 (disulfide 2-7 (inferred); ends not checked) [SEQ ID NO: 324],> 5 µM
3,KCNTATCTVQWLAHQIYQFTDKDKDNVAPRTEVGSNGY [SEQ ID NO: 334],> 5 µM
4,KCNTATCTVQRLAHQIYQFTDKDKDNVAPRTKVGSNGY [SEQ ID NO: 34],0.0546 µM
5,GCRFGTCTVQWLAHQIYQFTDKDKDNVAPRTNIGPNG[Hyp]-NH2 (disulfide 2-7 (inferred); ends not checked) [SEQ ID NO: 331],3.57 µM
6,KCNTATCTVQWLAHQIYQFTDKDKANVAPPTNVGSNG[Hyp]-NH2 (disulfide 2-7 (inferred); ends not checked) [SEQ ID NO: 314],> 5 µM
7,KCNTATCTVQWLAHQIYQFTDKDKDNVAPTNVGSNG[Hyp]-NH2 (disulfide 2-7 (inferred); ends not checked) [SEQ ID NO: 319],> 5 µM
8,GCRFGTCTVQWLANFLYQFTDKDKDNVAPRTNVGPQGY [SEQ ID NO: 311],> 5 µM
9,GCRFGTCTVQWLAHFLYQFTDKDKDNVAPRTNVGSNTY [SEQ ID NO: 327],> 5 µM
10,GCRFGTCTVQWLAHFLYQFTDKDKDNVAPRTNVGPQGY [SEQ ID NO: 326],> 5 µM
11,GCRTGTCTVQWLAHQIYQFTDKDKDNVAPRTNVGPQGY [SEQ ID NO: 335],> 5 µM
12,KCNTATCTVQWLAHQIYQFTDKDKDNVAPRTKVGSNG[Hyp]-NH2 (disulfide 2-7 (inferred); ends not checked) [SEQ ID NO: 312],> 5 µM
13,KCNTATCTVQWLAHQIYQFTDKDKDNVPPTNVGSNG[Hyp]-NH2 (disulfide 2-7 (inferred); ends not checked) [SEQ ID NO: 318],> 5 µM
14,KCNTATCTVQWLAHQIYQFTDKAKDNVAPPTNVGSNG[Hyp]-NH2 (disulfide 2-7 (inferred); ends not checked) [SEQ ID NO: 320],> 5 µM
15,GCRTGTCTVQWLAHQIYQFTDKDKDNVAPRTNVGPNGY [SEQ ID NO: 332],> 5 µM
16,RCQASTCTVA[Cit]LAEQIAQYTDKDKDQVAPPTEVGPNS[Hyp]-NH2 (disulfide 2-7 (inferred); ends not checked) [SEQ ID NO: 33],> 5 µM
